Target: T1, CasEnd-28 (synthetic construct)
T1 chain: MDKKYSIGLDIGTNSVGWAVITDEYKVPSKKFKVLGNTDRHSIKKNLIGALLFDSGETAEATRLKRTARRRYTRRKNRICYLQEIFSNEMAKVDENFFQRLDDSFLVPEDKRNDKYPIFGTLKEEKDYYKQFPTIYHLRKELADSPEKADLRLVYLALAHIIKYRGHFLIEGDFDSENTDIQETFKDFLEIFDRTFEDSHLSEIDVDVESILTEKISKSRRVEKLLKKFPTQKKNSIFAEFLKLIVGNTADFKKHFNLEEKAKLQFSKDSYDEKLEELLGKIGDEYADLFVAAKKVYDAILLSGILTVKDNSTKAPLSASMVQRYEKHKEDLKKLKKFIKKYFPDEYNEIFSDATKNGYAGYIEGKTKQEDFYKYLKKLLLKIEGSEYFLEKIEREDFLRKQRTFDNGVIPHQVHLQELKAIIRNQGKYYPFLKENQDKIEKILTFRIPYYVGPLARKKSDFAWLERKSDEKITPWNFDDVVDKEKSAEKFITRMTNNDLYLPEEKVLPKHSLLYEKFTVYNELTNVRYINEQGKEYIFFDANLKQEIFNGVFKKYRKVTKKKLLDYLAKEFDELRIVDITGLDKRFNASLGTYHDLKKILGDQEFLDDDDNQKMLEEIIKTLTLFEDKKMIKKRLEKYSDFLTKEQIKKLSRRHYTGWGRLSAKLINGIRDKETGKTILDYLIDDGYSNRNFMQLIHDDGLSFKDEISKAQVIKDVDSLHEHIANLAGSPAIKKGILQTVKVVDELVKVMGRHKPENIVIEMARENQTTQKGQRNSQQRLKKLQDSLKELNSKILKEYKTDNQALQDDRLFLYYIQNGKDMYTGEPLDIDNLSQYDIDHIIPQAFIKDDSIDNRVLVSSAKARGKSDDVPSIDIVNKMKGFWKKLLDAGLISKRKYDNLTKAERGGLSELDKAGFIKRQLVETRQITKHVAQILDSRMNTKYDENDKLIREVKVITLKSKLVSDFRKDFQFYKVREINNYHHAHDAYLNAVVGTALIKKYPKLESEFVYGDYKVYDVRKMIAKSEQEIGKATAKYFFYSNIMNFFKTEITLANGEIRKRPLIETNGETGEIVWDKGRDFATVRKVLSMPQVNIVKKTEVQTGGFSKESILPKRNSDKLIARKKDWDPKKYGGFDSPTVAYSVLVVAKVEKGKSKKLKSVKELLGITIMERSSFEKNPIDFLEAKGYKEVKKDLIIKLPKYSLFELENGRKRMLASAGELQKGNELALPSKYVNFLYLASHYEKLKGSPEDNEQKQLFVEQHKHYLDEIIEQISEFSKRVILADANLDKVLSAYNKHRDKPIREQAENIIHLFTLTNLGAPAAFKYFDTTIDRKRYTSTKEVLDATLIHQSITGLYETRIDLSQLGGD
Experiment: cell_activity; +++; K562, second nick guide SEQ 380; PAM not stated
Description: The ability of the candidate endonucleases, including endonucleases 1-38 (CasEnds 1-38) (set forth in Table 1 and SEQ ID NOS: 1-38, respectively), to mediate target nucleic acid editing in cells was assessed by amplicon sequencing of the endogenous hemoglobin subunit beta (eHBB) gene, wherein the percent of amplicons displaying the intended edit is measured. The editing system is comprised of a template RNA (designed to introduce the Single Nucleotide Polymorphism), a second nick guide RNA, and a fusion protein consisting of retroviral reverse transcriptase and the individual subject Cas endonuclease.
Briefly, 250 ng of plasmid DNA encoding the subject fusion protein (containing one of the subject CasEnds), 250 ng each of plasmid DNA encoding the template RNA and the second nick guide RNA were added to 15 μL Lonza SF buffer containing 250,000 K562 cells. Nucleofection was mediated utilizing program FF-120-DA on a Lonza nucleofector. The day of nucleofection was marked as day 0. At day 3, the cells were harvested and subjected to lysis buffer treatment overnight. Genomic DNA was extracted and used for targeted amplicon sequencing to evaluate the performance of each Cas endonucleases based on their percent edit efficiencies.

B1: HBB template RNA ; HBB protospacer (ssRNA ; dsDNA)
RNA: CAUGGUGCACCUGACUCCUGGUUUUAGAGCUAGAAAUAGCAAGUUAAAAUAAGGCUAGUCCGUUAUCAACUUGAAAAAGUGGCACCGAGUCGGUGCACGGCAGACUUCUCUGCCGGAGUCAGGUGC
DNA 1: CATGGTGCACCTGACTCCTG
DNA 2: CAGGAGTCAGGTGCACCATG
For B1, the activity was ≥ 100 % of reference.
